Assay results from patent US20130203078A1.
Values belong to the substance of their own block, whether it stands above or below them.

Experiments:
Test in all cases: cell-based or functional assay
[1] = biological target: Human Interleukin 8 Receptor (hIL8RA), on RBL-2H3 cells with human granzyme A (Sensor A) (human) (UniProt P25024)
[2] = biological target: Human Bradykinin Receptor B1 (BDKRB1), c-myc tagged with viral glycosilation sequence, on RBL-2H3 cells (human) (UniProt P46663)
[3] = biological target: T1, human native unmodified procaspase-3 (huCasp3) (human) (UniProt P42574)
T1 sequence (looked up): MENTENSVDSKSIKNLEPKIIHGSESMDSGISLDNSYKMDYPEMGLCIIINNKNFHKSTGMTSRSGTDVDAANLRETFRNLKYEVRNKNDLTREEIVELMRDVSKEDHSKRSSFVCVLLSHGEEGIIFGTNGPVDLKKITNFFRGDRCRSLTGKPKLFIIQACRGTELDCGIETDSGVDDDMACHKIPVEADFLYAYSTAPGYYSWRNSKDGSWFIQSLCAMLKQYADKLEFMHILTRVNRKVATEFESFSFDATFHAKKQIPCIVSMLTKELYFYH

[4] = biological target: mutated human procaspase-3 (mut-huCasp3), amino acids 172 to 179 changed from IETDSGVD to IEPDVLME (human) (UniProt P42574)
[5] = biological target: TNP-BSA conjugate (trinitrophenyl hapten conjugated to bovine serum albumin) (bovine) (UniProt P02769)
[6] = biological target: Human Somatostain Receptor 2 (SSTR2), c-myc tagged with viral glycosilation sequence, on RBL-2H3 cells (human) (UniProt P30874)
Sequence of Human Somatostain Receptor 2 (SSTR2), c-myc tagged with viral glycosilation sequence, on RBL-2H3 cells (human) (P30874 other isoform, or with tags, fused parts or gaps): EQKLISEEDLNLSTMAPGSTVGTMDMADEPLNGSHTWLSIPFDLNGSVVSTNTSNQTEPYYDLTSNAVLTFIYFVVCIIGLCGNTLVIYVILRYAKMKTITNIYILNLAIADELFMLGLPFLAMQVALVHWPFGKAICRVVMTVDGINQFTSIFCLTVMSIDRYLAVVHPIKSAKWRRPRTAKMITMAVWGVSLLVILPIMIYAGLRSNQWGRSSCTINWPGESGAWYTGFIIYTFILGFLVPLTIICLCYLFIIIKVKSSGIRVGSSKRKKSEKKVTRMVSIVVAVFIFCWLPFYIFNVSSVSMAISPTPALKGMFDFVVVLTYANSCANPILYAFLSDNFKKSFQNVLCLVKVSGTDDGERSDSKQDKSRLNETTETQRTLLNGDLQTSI

Sequence of Human Bradykinin Receptor B1 (BDKRB1), c-myc tagged with viral glycosilation sequence, on RBL-2H3 cells (human) (P46663 other isoform, or with tags, fused parts or gaps): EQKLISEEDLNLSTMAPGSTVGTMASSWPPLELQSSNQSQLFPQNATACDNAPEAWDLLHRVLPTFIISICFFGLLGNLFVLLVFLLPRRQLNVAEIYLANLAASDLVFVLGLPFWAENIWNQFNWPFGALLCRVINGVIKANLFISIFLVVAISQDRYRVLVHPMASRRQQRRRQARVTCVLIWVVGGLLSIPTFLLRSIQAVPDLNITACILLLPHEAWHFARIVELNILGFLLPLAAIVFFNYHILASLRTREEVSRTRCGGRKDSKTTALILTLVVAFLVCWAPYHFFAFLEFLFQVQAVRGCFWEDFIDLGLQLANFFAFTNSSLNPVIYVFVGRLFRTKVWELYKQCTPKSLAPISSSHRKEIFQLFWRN
Sequence of Human IL8 (P10145 28-99 limits assumed): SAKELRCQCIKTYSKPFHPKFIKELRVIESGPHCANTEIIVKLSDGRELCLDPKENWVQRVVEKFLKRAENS
Sequence of Human Interleukin 8 Receptor (hIL8RA), on RBL-2H3 cells with human granzyme A (Sensor A) (human) (P25024 other isoform, or with tags, fused parts or gaps, form in doubt): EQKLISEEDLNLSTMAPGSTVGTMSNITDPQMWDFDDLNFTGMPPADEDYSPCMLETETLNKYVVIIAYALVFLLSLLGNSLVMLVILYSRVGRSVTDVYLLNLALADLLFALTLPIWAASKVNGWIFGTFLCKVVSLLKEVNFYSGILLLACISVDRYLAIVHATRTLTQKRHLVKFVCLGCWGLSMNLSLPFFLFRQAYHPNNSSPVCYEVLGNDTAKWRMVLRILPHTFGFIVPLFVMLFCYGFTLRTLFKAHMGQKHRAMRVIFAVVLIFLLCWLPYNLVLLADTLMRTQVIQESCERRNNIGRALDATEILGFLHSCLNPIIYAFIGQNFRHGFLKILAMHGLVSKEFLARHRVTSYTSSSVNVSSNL

Substance: Human IL8 (from UniProt P10145 28-99) (ligand)
Signal to background at 30 min (released granzyme A activity; condition 2: Sensor A alone, IL8 10 uM) [1]: 16
Signal to background at 30 min (released granzyme A activity; condition 5: Sensor A mixed with Sensor B, IL8 10 uM and carbachol 10 uM) [1]: 12.5

Substance: kallinin (from UniProt P01042 380-389) (peptide)
Absorbance at maximal dilution of ELISA tested (human granzyme B sandwich ELISA of supernatant, dilution 2250, after subtraction of 0.2 blank) [2]: 0.8 absorbance
Sensitivity (minimal amount of cells needed) [2]: < 150 cells
exocytosis of granzyme B, percent of maximal at 5 minutes [2]: > 90%
signal to background (S/B) of released granzyme B activity, medium taken at 5 to 15 minutes [2]: 20 to 22
signal to background (S/B) of released granzyme B activity, medium taken at 30 minutes [2]: 15 to 17
signal to background (S/B) of released granzyme B activity, medium taken at 60 minutes [2]: 8 to 10

Signal to Background (S/B), caspase-3 treated with granzyme B against caspase-3 only [3]: 2.8
Signal to Background (S/B), caspase-3 treated with granzyme B against caspase-3 only [4]: 77
signal to background, supernatant equivalent to 5.000 cells, 384 well plate [4]: > 20
Substance: human granzyme B secreted by stably transfected RBL-2H3 cells (from UniProt P10144 21-247) (enzyme)

Fluorescence after 30 minutes at 37 C (released granzyme B, FRET substrate), TNP-BSA 1 pg/mL [5]: 35900 fluorescence
Fluorescence after 30 minutes at 37 C (released granzyme B, FRET substrate), TNP-BSA 1 ng/mL [5]: 34600 fluorescence
Fluorescence after 30 minutes at 37 C (released granzyme B, FRET substrate), TNP-BSA 1 ug/mL [5]: 30900 fluorescence
Fluorescence after 30 minutes at 37 C (released granzyme B, FRET substrate), TNP-BSA 1 fg/mL [5]: 29800 fluorescence
limit of detection for TNP-BSA [5]: 0.1 ag/mL
Substance: mouse IgE monoclonal antibody against trinitrophenyl hapten from IgELb4 hybridoma (ATCC TIB-141)

Substance: seglitide (peptide)
Absorbance at maximal dilution of ELISA tested (human granzyme B sandwich ELISA of supernatant, dilution 2250, after subtraction of 0.2 blank) [6]: 2.4 absorbance
Sensitivity (minimal amount of cells needed) [6]: < 150 cells
